How the values were obtained:
[1] = molecular target: T1, human DLL3 antigen protein (Kactus Biosystems, Cat. No. DLL-HM103) (human, UniProt Q9NYJ7 27-492); experiment: SPR (Biacore 8K), antibody captured on anti-human Fc, DLL3 in solution
T1 sequence: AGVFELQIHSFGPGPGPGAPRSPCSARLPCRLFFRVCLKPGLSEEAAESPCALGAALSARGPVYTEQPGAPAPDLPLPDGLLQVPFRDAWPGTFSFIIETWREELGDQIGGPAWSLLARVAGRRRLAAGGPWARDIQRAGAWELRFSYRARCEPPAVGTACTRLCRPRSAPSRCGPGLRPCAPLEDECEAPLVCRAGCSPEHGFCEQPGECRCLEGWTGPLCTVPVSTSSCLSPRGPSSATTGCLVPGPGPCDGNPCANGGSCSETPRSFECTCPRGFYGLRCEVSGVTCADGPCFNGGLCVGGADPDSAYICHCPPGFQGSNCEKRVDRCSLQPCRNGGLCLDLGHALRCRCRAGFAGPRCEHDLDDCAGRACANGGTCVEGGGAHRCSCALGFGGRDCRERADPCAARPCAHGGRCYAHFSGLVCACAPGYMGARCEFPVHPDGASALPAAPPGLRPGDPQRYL
Method: The affinity and kinetic properties of the humanized anti-DLL3 antibody to human DLL3 were analyzed using a Biacore 8K instrument. CM5 chips were activated with EDC and NHS, followed by immobilization of anti-human Fc murine mAb and blocked with ethanolamine.
Human DLL3 was diluted two-fold serially to serial concentrations (100 nM-0.39 nM) and associated for 90 s and dissociated for 600 s at a flow rate of 50 μL/min.
After completion of each round of the experiment, the captured antibody was removed together with the antigen by washing with a 3M MgCl₂ solution at a flow rate of 30 μL/min for 30 s to complete the regeneration of the chip. The raw data were analyzed using Biacore Insight Evaluation Software (3.0.12.15655) software and fitted with a (1:1) Langmuir model with.

[2] = molecular target: T2, human DLL4 (Sino Biological, Cat. No. 10171-H08H) (human, UniProt Q9NR61 27-529); experiment: ELISA, plate coated with human DLL4 at 1 ug/mL, OD 450nm
T2 construct: also called family protein DLL4
T2 sequence (Q9NR61 27-529 limits assumed): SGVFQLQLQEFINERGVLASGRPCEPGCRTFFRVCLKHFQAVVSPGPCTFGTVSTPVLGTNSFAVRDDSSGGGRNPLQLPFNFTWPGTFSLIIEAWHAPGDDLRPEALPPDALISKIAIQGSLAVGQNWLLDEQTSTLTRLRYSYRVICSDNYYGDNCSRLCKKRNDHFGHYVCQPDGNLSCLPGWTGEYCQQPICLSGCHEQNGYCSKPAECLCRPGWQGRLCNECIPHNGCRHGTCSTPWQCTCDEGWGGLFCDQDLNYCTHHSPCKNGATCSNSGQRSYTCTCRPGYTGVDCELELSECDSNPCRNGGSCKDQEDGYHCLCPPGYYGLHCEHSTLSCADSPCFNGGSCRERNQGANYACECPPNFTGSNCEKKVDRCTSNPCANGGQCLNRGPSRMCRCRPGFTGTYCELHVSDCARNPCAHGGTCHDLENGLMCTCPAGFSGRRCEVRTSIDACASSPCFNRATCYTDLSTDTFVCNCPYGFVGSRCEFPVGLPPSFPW
Method: The antigenic proteins human DLL1 (SinoBiological, cat. No. 11635-H08H) or human DLL4 (SinoBiological, cat. No. 10171-H08H) were dissolved in 1×PBS at a concentration of 1 μg/mL. […] The antigen was washed three times with PBST, 300 μL/well. The antigen was blocked with 1% BSA (in PBST), 200 µL/well, and incubated at 37° C. for 1.5 hours.
Antibodies to be tested were diluted with 1% BSA (in PBS) at a starting concentration of 100 nM, downwards by a 10-fold gradient for 7 concentrations. The plates were washed three times with PBST, 300 μL/well. The diluted antibody was added to an ELISA plate at 100 μL/well and incubated at room temperature for 2 hours. The antibodies were washed three times with PBST, 300 μL/well. The secondary antibodies (goat anti-human IgG Fc for DLL4 (HRP), 1:20000 dilution; HRP goat anti-mouse IgG (H+L) for DLL1, 1:10000 dilution) were diluted with 1% BSA in PBST. The diluted secondary antibodies were added to the ELISA plate at 100 μL/well and incubated at room temperature for 1 hour. The plates were washed 6 times with PBST, 300 μL/well. The developing solution (TMA and TMB 1:1 mixed) was prepared. The developing solution was added to the plate, 100 μL/well, and incubated in the dark for 5 min. 50 μL of ELISA stop solution was added to the plate and shaken well.

B1: H2-39E2D11 mouse hybridoma-derived humanized anti-DLL3 antibody (antibody, V domains shown)
VH: QVQLVQSGAEVKKPGASVKVSCKASGYTFISYWITWVRQAPGQGLEWMGDIYPGSGSTTNYNEKFKSRVTMTRDTSTSTVYMELSSLRSEDTAVYYCARETTVGGAYAMDYWGQGTLVTVSS
VL: EIVLTQSPATLSLSPGERATLSCRASQSINNNLHWYQQKPGQAPRLLIKYVSQSISGIPARFSGSGSGTDFTLTISSLEPEDFAVYYCQQTNSWPLTFGGGTKLEIK
- Kd [1]: 0.576 nM
- koff [1]: 0.00018 s⁻¹
- kon [1]: 313000 M⁻¹ s⁻¹
- binding result [2]: no binding (tested: 100 nM)

Reference: US20240239878A1 (SHANGHAI QILU PHARMACEUTICAL RESEARCH AND DEVELOPMENT CENTRE, published 2024)
